Data as given in the supplement of paper PMC12042874.
± gives the uncertainty stated by the source.

assay: amyloid nucleation score (Sup35N fusion, yeast selection) (log enrichment); library NNK1; higher = more nucleation; inactive = no reads after selection
Summary of the method: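 The nucleation score is the DiMSum log enrichment of output over input reads, centred on the mode score of non-aggregating sequences. Only sequences with 100 or more input reads were scored, using Illumina sequencing of input and output plasmid inserts. Psi-negative yeast expressing Sup35N fused to peptides of 20 random codons were induced 24 hours with 100 μM copper sulfate and grown 7 days at 30°C on medium lacking adenine and uracil.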

Question: Which amyloid nucleation score does the source give for TSLVVVSYMVTL here?
Answer: 1.93 ± 0.42

Question: Which amyloid nucleation score does the source give for TSLWCQLRKFNYI here?
Answer: -0.181 ± 0.26

Question: With TSMPDLGWAVSVAAQFYNFQ as the substance, how does the amyloid nucleation score read?
Answer: 5.5 ± 0.077

Question: For TSNYAGAISFANSNILLFFV, which amyloid nucleation score is on record?
Answer: 3.64 ± 0.14

Question: Which amyloid nucleation score does the source give for TSPEVLRAIVSTSLFCCILR here?
Answer: -0.724 ± 2.4

Question: Which amyloid nucleation score does the source give for TSPSRIMS here?
Answer: 1.12 ± 0.35

Question: For TSRGSGSVWLDFFSHHGKIG, which amyloid nucleation score is on record?
Answer: -0.218 ± 1.4

Question: Which amyloid nucleation score does the source give for TSRIFRCCCNCWSHA here?
Answer: 1.31 ± 0.11

Question: For TSSPSVTYLLRYRLQWTLHN, which amyloid nucleation score is on record?
Answer: 0.035 ± 0.76

Question: With TSTPNVWRKR as the substance, how does the amyloid nucleation score read?
Answer: inactive

Question: With TSYVMPEGFAVGFKMSM as the substance, how does the amyloid nucleation score read?
Answer: 0.205 ± 0.66

Question: Which amyloid nucleation score does the source give for TTCSLVSSAAWMY here?
Answer: -0.223 ± 0.39

Question: With TTFVSASSMRRYRCLSLGAC as the substance, how does the amyloid nucleation score read?
Answer: 0.659 ± 0.85

Question: For TTGSLVCKAAPIWFVPTPAF, which amyloid nucleation score is on record?
Answer: -1.09 ± 0.84

Question: For TTWVVFFEPGAV, which amyloid nucleation score is on record?
Answer: -0.297 ± 0.84

Question: For TVCYTGEVRMLRS, which amyloid nucleation score is on record?
Answer: 4.22 ± 0.068

Question: For TVFSSWLTQGSMYV, which amyloid nucleation score is on record?
Answer: 1.48 ± 0.44

Question: For TVGSIRRNHEVLWGTRILSG, which amyloid nucleation score is on record?
Answer: -1.69 ± 2.7

Question: Which amyloid nucleation score does the source give for TVLNDYWFSTHKLSIR here?
Answer: 0.958 ± 0.48

Question: Which amyloid nucleation score does the source give for TVLSRVFWQRDGFVIAQSDG here?
Answer: inactive

Question: Which amyloid nucleation score does the source give for TVRCG here?
Answer: 0.014 ± 0.97

Question: With TVRGSTRSKLSGASWQCWRA as the substance, how does the amyloid nucleation score read?
Answer: -0.023 ± 0.21

Question: For TVVESRTPILVYFMGCRVTY, which amyloid nucleation score is on record?
Answer: 3.31 ± 0.11

Question: With TVVEVRGVEQRHGLNCTNPG as the substance, how does the amyloid nucleation score read?
Answer: -0.05 ± 0.57

Question: With TVVHINHHFRGTFISMAKSR as the substance, how does the amyloid nucleation score read?
Answer: -1.58 ± 2.1

Question: Which amyloid nucleation score does the source give for TWAVSNLSRV here?
Answer: -1.61 ± 0.59

Question: Which amyloid nucleation score does the source give for TWCCYCFLRVFFEERE here?
Answer: -0.298 ± 0.33

Question: For TWQAWVGCWQYQRMGTEL, which amyloid nucleation score is on record?
Answer: 0.256 ± 0.58

Question: Which amyloid nucleation score does the source give for TWYLDFFSSPFLVGFSLSFG here?
Answer: 0.633 ± 0.49

Question: Which amyloid nucleation score does the source give for TYCRQDRWVGSKKLSCTIDC here?
Answer: -0.025 ± 0.23

Question: For TYDALRGYNYHLWSNQFTFY, which amyloid nucleation score is on record?
Answer: 4.84 ± 0.066

Question: For TYIPDIYG, which amyloid nucleation score is on record?
Answer: 1.1 ± 0.74

Question: For TYKFGYVHVDTFMTVLMHTL, which amyloid nucleation score is on record?
Answer: -0.169 ± 0.31

Question: With TYPLGNSESISVRLFIQYVT as the substance, how does the amyloid nucleation score read?
Answer: 1.39 ± 0.12

Question: With TYRTWLYLPLQCAIYLGVSL as the substance, how does the amyloid nucleation score read?
Answer: -0.436 ± 0.64

Question: With TYSLYMCADKFRNTLVNKAV as the substance, how does the amyloid nucleation score read?
Answer: inactive

Question: For TYSVTFF, which amyloid nucleation score is on record?
Answer: 0.231 ± 0.4

Question: Which amyloid nucleation score does the source give for TYWGC here?
Answer: 0.186 ± 1

Question: Which amyloid nucleation score does the source give for VAFYGFITKINLEIY here?
Answer: 0.578 ± 0.4

Question: For VAGCNVDIDVNMSCRGDMWK, which amyloid nucleation score is on record?
Answer: 2.81 ± 0.12

Question: Which amyloid nucleation score does the source give for VALDMYCFQYFQTNYYS here?
Answer: 8.411 ± 0.045

Question: Which amyloid nucleation score does the source give for VALWGQYGTSIGAIGAVFSH here?
Answer: -0.03 ± 0.54

Question: Which amyloid nucleation score does the source give for VASGSCFFRDPKIVIMSFLW here?
Answer: 3.34 ± 0.088

Question: With VAVTITYAICDTLILFIEGG as the substance, how does the amyloid nucleation score read?
Answer: 4.08 ± 0.1

Question: With VCDFNVNYMSLVCEIHGT as the substance, how does the amyloid nucleation score read?
Answer: 0.495 ± 0.56

Question: For VCELHLILM, which amyloid nucleation score is on record?
Answer: 0.425 ± 0.3

Question: With VCFALSI as the substance, how does the amyloid nucleation score read?
Answer: -0.098 ± 0.46

Question: For VCGVRMVLALSRFVLSAINN, which amyloid nucleation score is on record?
Answer: 0.177 ± 0.65

Question: Which amyloid nucleation score does the source give for VCNCCLHVYIPSRAGNRPMR here?
Answer: 8.251 ± 0.072

Question: With VCQLVILGFFLRIVTMCWLW as the substance, how does the amyloid nucleation score read?
Answer: inactive

Question: For VCRLGSNPVQWVGPGSSVFC, which amyloid nucleation score is on record?
Answer: 1.23 ± 0.71

Question: For VCRVMTSLNEGKLSAECVLV, which amyloid nucleation score is on record?
Answer: 0.594 ± 0.32

Question: With VCYLGECRGHAIMEYWWSWR as the substance, how does the amyloid nucleation score read?
Answer: 2.4 ± 0.24

Question: For VCYRGECVDSDLLYLSCP, which amyloid nucleation score is on record?
Answer: -0.389 ± 1

Question: Which amyloid nucleation score does the source give for VDCMGKMVLFLPTFGDGFIV here?
Answer: -0.123 ± 0.32

Question: Which amyloid nucleation score does the source give for VDDICIIVANSAGRDEQMSM here?
Answer: 1.16 ± 0.56

Question: With VDHVGGWVYWYGTRCTFVDG as the substance, how does the amyloid nucleation score read?
Answer: -0.048 ± 0.27

Question: Which amyloid nucleation score does the source give for VDISEGCVSPVCFLMPCLMH here?
Answer: -0.238 ± 0.29

Question: With VDLFYE as the substance, how does the amyloid nucleation score read?
Answer: inactive

Question: Which amyloid nucleation score does the source give for VDLISWLVYEKVMSRMNIYN here?
Answer: -0.001 ± 0.4

Question: For VDLLFDTNCNSF, which amyloid nucleation score is on record?
Answer: inactive

Question: Which amyloid nucleation score does the source give for VDLNWRHVDCCYFRFTTQDH here?
Answer: 6.04 ± 0.074

Question: For VEAPGLSCAIRGWNTVVIRR, which amyloid nucleation score is on record?
Answer: 0.387 ± 0.49

Question: For VEGLEDGVWR, which amyloid nucleation score is on record?
Answer: 0.876 ± 0.38

Question: Which amyloid nucleation score does the source give for VELCHIRSLMFLIQHP here?
Answer: 1.05 ± 0.21

Question: With VELLGQYVICPSTRCRIVEN as the substance, how does the amyloid nucleation score read?
Answer: 0.254 ± 0.47

Question: Which amyloid nucleation score does the source give for VERTCGVGTRLFTCYGQVAI here?
Answer: -0.3 ± 0.53

Question: For VFEADQNENGTTAPSEAQDR, which amyloid nucleation score is on record?
Answer: -0.088 ± 0.3

Question: With VFFNLIKRWEVVREDTM as the substance, how does the amyloid nucleation score read?
Answer: -0.426 ± 0.35

Question: For VFGCSGLDKSQWND, which amyloid nucleation score is on record?
Answer: 0.434 ± 0.45

Question: Which amyloid nucleation score does the source give for VFIIRRDLCWRTSFCLQQEL here?
Answer: 0.965 ± 0.18

Question: With VFITSVFVRECNTHESTTIQ as the substance, how does the amyloid nucleation score read?
Answer: 8.073 ± 0.078

Question: For VFKSVFY, which amyloid nucleation score is on record?
Answer: 1.99 ± 0.32

Question: For VFLKDSTVAGNVMTCDIRVV, which amyloid nucleation score is on record?
Answer: 0.078 ± 0.6

Question: With VFLLKDRNTTCLWKSVIQQM as the substance, how does the amyloid nucleation score read?
Answer: 0.494 ± 0.34

Question: Which amyloid nucleation score does the source give for VFLQFVMDDSHGLNK here?
Answer: inactive

Question: For VFLRL, which amyloid nucleation score is on record?
Answer: 4.48 ± 0.1

Question: With VFLRRVINTSFGSMMV as the substance, how does the amyloid nucleation score read?
Answer: 0.976 ± 1.1

Question: Which amyloid nucleation score does the source give for VFMIVCK here?
Answer: inactive

Question: For VFNVGYLV, which amyloid nucleation score is on record?
Answer: -1.21 ± 0.55

Question: For VFRGSWCRTNNVIPGLFNKA, which amyloid nucleation score is on record?
Answer: 0.488 ± 0.4

Question: For VFSVAGASCCRRIGSCWLLR, which amyloid nucleation score is on record?
Answer: 0.687 ± 0.97

Question: Which amyloid nucleation score does the source give for VFSYGWLYQAPFFRFLHTGF here?
Answer: 0.109 ± 0.74

Question: Which amyloid nucleation score does the source give for VFYLCSLLCLIVKRLGQGDC here?
Answer: 0.484 ± 0.57

Question: With VGGQRKVRSDDVSMDVHTAT as the substance, how does the amyloid nucleation score read?
Answer: 0.924 ± 0.47

Question: For VGHKNSYGRFKDIWIWLWYQ, which amyloid nucleation score is on record?
Answer: -0.009 ± 1.4
